# From patent publication US20250002557A1
# T1: PDGF-CC, Q9NRA1
# T1 chain: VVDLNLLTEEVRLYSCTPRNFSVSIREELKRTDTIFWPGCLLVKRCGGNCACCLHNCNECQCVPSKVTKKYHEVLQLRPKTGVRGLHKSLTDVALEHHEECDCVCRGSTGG
# B1: VEGFR2-Fc (Met1-Glu764), P35968 20-764 (Fc fusion, not shown: a dimerising Fc or GST)
# chain: ASVGLPSVSLDLPRLSIQKDILTIKANTTLQITCRGQRDLDWLWPNNQSGSEQRVEVTECSDGLFCKTLTIPKVIGNDTGAYKCFYRETDLASVIYVYVQDYRSPFIASVSDQHGVVYITENKNKTVVIPCLGSISNLNVSLCARYPEKRFVPDGNRISWDSKKGFTIPSYMISYAGMVFCEAKINDESYQSIMYIVVVVGYRIYDVVLSPSHGIELSVGEKLVLNCTARTELNVGIDFNWEYPSSKHQHKKLVNRDLKTQSGSEMKKFLSTLTIDGVTRSDQGLYTCAASSGLMTKKNSTFVRVHEKPFVAFGSGMESLVEATVGERVRIPAKYLGYPPPEIKWYKNGIPLESNHTIKAGHVLTIMEVSERDTGNYTVILTNPISKEKQSHVVSLVVYVPPQIGEKSLISPVDSYQYGTTQTLTCTVYAIPPPHHIHWYWQLEEECANEPSQAVSVTNPYPCEEWRSVEDFQGGNKIEVNKNQFALIEGKNKTVSTLVIQAANVSALYKCEAVNKVGRGERVISFHVTRGPEITLQPDMQPTEQESVSLWCTADRSTFENLTWYKLGPQPLPIHVGELPTPVCKNLDTLWKLNATMFSNSTNDILIMELKNASLQDQGDYVCLAQDRKTKKRHCVVRQLTVLERVAPTITGNLENQTTSIGESIEVSCTASGNPPPQIMWFKDNETLVEDSGIVLKDGNRNLTIRRVRKEDEGLYTCQACSVLGCAKVEAFFIIEGAQEKTNLE
# Molecular target: T1, PDGF-CC, Q9NRA1
# Experiment: SPR, PDGF coupled to CM5 chip, VEGFR2-Fc in flow
# Conditions: remark: other sources report otherwise
binder,measurement,value
B1,Kd,73.6 nM
